Publication PMC12728192, “The dynamic lateral gate of the mitochondrial β-barrel biogenesis machinery is blocked by darobactin A” (Nature Communications, 2025)
Several values for one entry are separate records, joined by “and”; a condition that tells them apart may be missing. Equal entries are not always repeated. Where two headings read alike, the source gives them in different places.

Columns and labels:
[1] = target: Thermothelomyces thermophilus SAM complex (sorting and assembly machinery complex; Sam50:Sam35:Sam37, monomer) (Thermothelomyces thermophilus); test: MST; SAM complex labelled with Monolith RED-tris-NTA 2nd Generation, constant at 25 nM; serial dilution of peptide; size exclusion buffer (20 mM HEPES pH 8.0, 150 mM NaCl, 0.02% GDN); Monolith NT.115, premium capillaries
[2] = target: Thermothelomyces thermophilus SAM complex (10xHis-TEV-Sam50, Sam35 (no tag), TwinStrep-TEV-GG-Sam37) (Thermothelomyces thermophilus); test: MST; SAM complex labelled with Monolith RED-tris-NTA 2nd Generation, constant at 25 nM; serial dilution of peptide; size-exclusion buffer (20 mM HEPES pH 8.0, 150 mM NaCl, 0.02% GDN); Monolith NT.115, premium capillaries; MO.Affinity Analysis; one Kd for each biological replicate from 2-3 technical replicates

## linear darobactin (peptide)
[1]
  Kd: 490 to 1200 µM
[2]
  Kd: > 1170 µM

## darobactin A (peptide)
[1]
  Kd: 0.296 µM and 0.0956 to 0.377 µM
[2]; mean of biological replicates
  Kd: 0.228 µM
